In doi:10.1101/2024.11.06.622366:
Read-outs that look alike come from different tables or passages of the source. Each block holds one substance with its values, some of them ahead of it.

How the values were obtained:
[1] = biological target: 11S, large fragment of a split luciferase
[2] = biological target: 11S, large fragment of a split luciferase; remark: listed apart in the source
[3] = biological target: 11S, large fragment of a split luciferase; remark: listed apart in the source
[4] = biological target: 11S, large fragment of a split luciferase; remark: listed apart in the source
[5] = biological target: 11S, large fragment of a split luciferase; remark: listed apart in the source
[6] = biological target: 11S, large fragment of a split luciferase; remark: listed apart in the source
[7] = biological target: 11S, large fragment of a split luciferase; remark: listed apart in the source
[8] = biological target: 11S, large fragment of a split luciferase; remark: listed apart in the source

Kd [1]: 144 nM
Substance: PINK1 DDL I111S (from UniProt Q9BXM7 78-581)

Kd [2]: 715 nM
Substance: PINK1(3EA) DDL (from UniProt Q9BXM7 78-581)

Kd [3]: 93.7 nM
Substance: PINK1(3EA) DLD (from UniProt Q9BXM7 78-581)

Kd [4]: 284 nM
Substance: PINK1(3EA) LDD (from UniProt Q9BXM7 78-581)

Kd [5]: 133 nM
Substance: PINK1(ALALAL) DDL (from UniProt Q9BXM7 78-581)

Kd [6]: 238 nM
Substance: PINK1Δ(1-50) DDL (from UniProt Q9BXM7 51-581)

Kd [7]: 187 nM
Substance: PINK1Δ(1-91) DDL (from UniProt Q9BXM7 92-581)

Kd [8]: 447 nM
Substance: PINK1Δ(1-150) DDL (from UniProt Q9BXM7 151-581)
